By Kd is commonly meant the equilibrium constant for the complex coming apart. Low values mean a tighter complex, high ones a looser complex.

The values below come from paper PMC5789952 (Proceedings of the National Academy of Sciences of the …, 2017).

One assay addresses T1, STAT2_(133–679) V171E (mouse, UniProt Q9WVL2 133-679, V171E).
T1 sequence (looked up): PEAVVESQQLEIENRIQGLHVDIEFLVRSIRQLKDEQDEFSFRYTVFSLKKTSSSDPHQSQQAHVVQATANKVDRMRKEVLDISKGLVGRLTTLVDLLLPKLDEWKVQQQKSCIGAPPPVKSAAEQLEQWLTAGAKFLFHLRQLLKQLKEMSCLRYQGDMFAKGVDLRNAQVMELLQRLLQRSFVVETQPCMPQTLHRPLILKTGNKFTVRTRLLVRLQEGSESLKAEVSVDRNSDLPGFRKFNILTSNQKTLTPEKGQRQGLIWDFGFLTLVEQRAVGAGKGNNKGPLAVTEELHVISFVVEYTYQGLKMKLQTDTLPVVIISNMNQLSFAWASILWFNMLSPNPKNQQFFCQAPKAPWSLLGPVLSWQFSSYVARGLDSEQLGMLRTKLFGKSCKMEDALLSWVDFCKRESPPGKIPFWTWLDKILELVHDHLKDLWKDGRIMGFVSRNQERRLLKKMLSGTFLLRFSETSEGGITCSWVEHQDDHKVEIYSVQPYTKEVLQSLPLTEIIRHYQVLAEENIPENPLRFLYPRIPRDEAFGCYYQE
In words: ITC. (Isothermal titration calorimetry measures the heat released or taken up as one component is titrated into another.)

Another assay has as its target T2, STAT1_(136–713) (mouse, UniProt P42225 136-713).
T2 sequence (looked up): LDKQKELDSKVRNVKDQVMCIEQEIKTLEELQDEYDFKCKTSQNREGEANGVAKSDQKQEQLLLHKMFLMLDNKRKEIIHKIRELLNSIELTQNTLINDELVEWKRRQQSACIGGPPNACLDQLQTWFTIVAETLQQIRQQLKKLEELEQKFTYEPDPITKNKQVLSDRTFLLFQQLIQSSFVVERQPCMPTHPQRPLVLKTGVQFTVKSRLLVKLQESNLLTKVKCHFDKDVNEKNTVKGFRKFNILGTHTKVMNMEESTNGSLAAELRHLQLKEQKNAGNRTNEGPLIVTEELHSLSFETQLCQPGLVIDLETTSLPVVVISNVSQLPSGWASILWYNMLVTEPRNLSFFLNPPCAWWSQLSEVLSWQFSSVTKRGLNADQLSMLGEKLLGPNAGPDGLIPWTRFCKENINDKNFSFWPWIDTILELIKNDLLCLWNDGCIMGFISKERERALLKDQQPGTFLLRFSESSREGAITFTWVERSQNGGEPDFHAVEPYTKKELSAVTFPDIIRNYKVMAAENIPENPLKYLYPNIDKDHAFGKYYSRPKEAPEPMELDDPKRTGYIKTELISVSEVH
Briefly: ITC.

A further assay has as its target T3, STAT1_(136–713) E169V (mouse, UniProt P42225 136-713, E169V).
T3 sequence (looked up): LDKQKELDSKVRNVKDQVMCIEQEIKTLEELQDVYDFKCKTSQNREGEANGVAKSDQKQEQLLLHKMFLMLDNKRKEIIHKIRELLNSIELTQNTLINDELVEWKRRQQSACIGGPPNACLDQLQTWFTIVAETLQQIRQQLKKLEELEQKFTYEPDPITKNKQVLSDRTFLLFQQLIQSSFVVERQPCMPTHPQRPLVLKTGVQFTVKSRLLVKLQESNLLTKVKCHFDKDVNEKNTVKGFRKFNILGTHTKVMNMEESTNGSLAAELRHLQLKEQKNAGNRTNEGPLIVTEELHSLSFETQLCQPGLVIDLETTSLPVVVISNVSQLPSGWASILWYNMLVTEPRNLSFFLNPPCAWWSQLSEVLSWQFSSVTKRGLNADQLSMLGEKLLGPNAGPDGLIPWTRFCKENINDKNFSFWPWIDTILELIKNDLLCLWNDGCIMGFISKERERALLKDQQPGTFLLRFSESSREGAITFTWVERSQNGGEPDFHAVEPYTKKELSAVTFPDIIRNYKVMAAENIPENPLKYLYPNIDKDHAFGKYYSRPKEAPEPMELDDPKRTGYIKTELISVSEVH
Briefly: ITC.

The next assay has as its target T4, STAT2_(133–679) (mouse, UniProt Q9WVL2 133-679).
T4 sequence (looked up): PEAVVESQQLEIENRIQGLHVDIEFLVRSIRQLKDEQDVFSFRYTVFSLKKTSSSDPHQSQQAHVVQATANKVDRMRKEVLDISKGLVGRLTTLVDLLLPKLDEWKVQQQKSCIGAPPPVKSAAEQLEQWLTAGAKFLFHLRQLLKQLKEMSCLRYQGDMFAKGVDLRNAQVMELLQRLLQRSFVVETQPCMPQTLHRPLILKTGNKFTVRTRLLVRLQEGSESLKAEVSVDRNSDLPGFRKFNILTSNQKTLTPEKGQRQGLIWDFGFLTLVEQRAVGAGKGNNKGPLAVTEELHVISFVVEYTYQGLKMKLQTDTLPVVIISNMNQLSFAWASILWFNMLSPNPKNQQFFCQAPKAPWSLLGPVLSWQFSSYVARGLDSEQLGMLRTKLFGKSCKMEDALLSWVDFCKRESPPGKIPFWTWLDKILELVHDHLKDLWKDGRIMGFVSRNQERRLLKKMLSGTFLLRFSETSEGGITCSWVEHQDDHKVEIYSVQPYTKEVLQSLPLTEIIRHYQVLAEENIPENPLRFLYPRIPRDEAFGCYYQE
Briefly: ITC.

Another assay addresses T5, STAT2_(133–738) (mouse, UniProt Q9WVL2 133-738).
T5 sequence (looked up): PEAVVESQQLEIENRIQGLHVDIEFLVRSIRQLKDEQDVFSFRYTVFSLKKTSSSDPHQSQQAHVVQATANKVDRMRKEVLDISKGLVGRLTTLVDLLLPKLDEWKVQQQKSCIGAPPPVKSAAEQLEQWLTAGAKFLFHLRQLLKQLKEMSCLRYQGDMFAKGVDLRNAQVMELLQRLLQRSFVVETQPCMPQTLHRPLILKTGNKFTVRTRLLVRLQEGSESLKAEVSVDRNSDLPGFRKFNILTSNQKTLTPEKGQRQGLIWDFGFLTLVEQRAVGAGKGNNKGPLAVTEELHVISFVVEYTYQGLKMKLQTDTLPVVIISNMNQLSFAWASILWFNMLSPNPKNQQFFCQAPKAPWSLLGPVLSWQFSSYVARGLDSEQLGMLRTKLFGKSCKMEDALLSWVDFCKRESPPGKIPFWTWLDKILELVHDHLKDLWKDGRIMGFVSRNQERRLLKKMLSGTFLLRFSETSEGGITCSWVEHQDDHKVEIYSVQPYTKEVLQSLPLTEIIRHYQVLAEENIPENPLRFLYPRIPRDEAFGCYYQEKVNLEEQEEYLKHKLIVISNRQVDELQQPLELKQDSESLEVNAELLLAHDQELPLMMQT
Briefly: SEC. On the technique in general: Size exclusion chromatography separates by hydrodynamic size, large species first.

The target in assay [1] is T6, IRF9–IAD_(182–385) E347A E348A (crystallised form in the complex) (mouse, UniProt Q61179 182-385, E347A | E348A).
T6 sequence (looked up): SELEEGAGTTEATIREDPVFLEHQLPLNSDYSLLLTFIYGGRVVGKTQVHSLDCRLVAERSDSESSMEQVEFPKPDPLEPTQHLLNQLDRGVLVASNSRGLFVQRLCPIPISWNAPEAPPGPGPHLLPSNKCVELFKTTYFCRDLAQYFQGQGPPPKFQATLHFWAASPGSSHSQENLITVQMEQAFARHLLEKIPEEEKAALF
Briefly: crystal structure.

B1: IRF9–IAD_(182–385) (domain or fragment, mouse, UniProt Q61179 182-385, looked up)
chain: SELEEGAGTTEATIREDPVFLEHQLPLNSDYSLLLTFIYGGRVVGKTQVHSLDCRLVAERSDSESSMEQVEFPKPDPLEPTQHLLNQLDRGVLVASNSRGLFVQRLCPIPISWNAPEAPPGPGPHLLPSNKCVELFKTTYFCRDLAQYFQGQGPPPKFQATLHFWEESPGSSHSQENLITVQMEQAFARHLLEKIPEEEKAALF
In the case of B1, the equilibrium dissociation constant (Kd) with STAT2_(133–679) V171E was found to be 2.5 µM; with STAT1_(136–713), 5 µM; with STAT1_(136–713) E169V, 0.116 µM; in the assay with STAT2_(133–679), 0.01 µM.

B2: IRF9–IAD IF3 (L326A, F330A, I376A) (domain or fragment, mouse, UniProt Q61179 182-385, looked up)
chain: SELEEGAGTTEATIREDPVFLEHQLPLNSDYSLLLTFIYGGRVVGKTQVHSLDCRLVAERSDSESSMEQVEFPKPDPLEPTQHLLNQLDRGVLVASNSRGLFVQRLCPIPISWNAPEAPPGPGPHLLPSNKCVELFKTTYFCRDAAQYAQGQGPPPKFQATLHFWEESPGSSHSQENLITVQMEQAFARHLLEKAPEEEKAALF
Regarding B2, in the assay with STAT2_(133–679), binding was put at a Kd of 0.017 µM.

B3: IRF9–IAD IF2 (R324E, D325K, Q331E, Q333E, P335S) (domain or fragment, mouse, UniProt Q61179 182-385, looked up)
chain: SELEEGAGTTEATIREDPVFLEHQLPLNSDYSLLLTFIYGGRVVGKTQVHSLDCRLVAERSDSESSMEQVEFPKPDPLEPTQHLLNQLDRGVLVASNSRGLFVQRLCPIPISWNAPEAPPGPGPHLLPSNKCVELFKTTYFCEKLAQYFEGEGSPPKFQATLHFWEESPGSSHSQENLITVQMEQAFARHLLEKIPEEEKAALF
Molecule B3 showed a Kd in the assay with STAT2_(133–679) of 0.011 µM.

B4: full-length IRF9 (IRF9FL) (natural protein, mouse, UniProt Q61179 1-399, looked up)
chain: MASGKVRCTRKLRSWIVEQVESGHFPGVCWDDAAKTMFRIPWKHAGKQDFREDQDAAIFKAWALFKEKHKDGDIGHPAVWKTRLRCALNKSSEFEEVPERGRMDVAEPYKVYRILPAGTLPNQPRNQKSPCKRSISCVSPEREENMENGRTNGVVNHSDSGSNIGGGGNGSNRSDSNSNCNSELEEGAGTTEATIREDPVFLEHQLPLNSDYSLLLTFIYGGRVVGKTQVHSLDCRLVAERSDSESSMEQVEFPKPDPLEPTQHLLNQLDRGVLVASNSRGLFVQRLCPIPISWNAPEAPPGPGPHLLPSNKCVELFKTTYFCRDLAQYFQGQGPPPKFQATLHFWEESPGSSHSQENLITVQMEQAFARHLLEKIPEEEKAALFLLQHTEQSPSALGH
With B4, the binding result with STAT2_(133–738) was “binds”.

B5: STAT2–CCD_(133–315) Q242A K243A (crystallised form) (domain or fragment, mouse, UniProt Q9WVL2 133-315, looked up)
chain: PEAVVESQQLEIENRIQGLHVDIEFLVRSIRQLKDEQDVFSFRYTVFSLKKTSSSDPHQSQQAHVVQATANKVDRMRKEVLDISKGLVGRLTTLVDLLLPKLDEWKVQQAASCIGAPPPVKSAAEQLEQWLTAGAKFLFHLRQLLKQLKEMSCLRYQGDMFAKGVDLRNAQVMELLQRLLQRS
Regarding B5, the binding result in assay [1] was “binds”.
